# Measured values published in publication PMC6056499 (2018).
# Columns and labels:
# [1] = target: T1, human β-Klotho extracellular domain (aa1–992) fused with a 6 × His tag at the C-terminus (human, UniProt Q86Z14 1-992, biotin (EZ-Link Sulfo-NHS-LC-Biotin) in the bio-layer interferometry); assay: competition with FGF19 (AlphaScreen)
# [2] = target: T1, human β-Klotho extracellular domain …; assay: competition with FGF21 (AlphaScreen)
# [3] = target: T1, human β-Klotho extracellular domain …; assay: AlphaScreen, competition with FGF19
# [4] = target: T1, human β-Klotho extracellular domain …; assay: AlphaScreen, competition with FGF21
# [5] = target: T1, human β-Klotho extracellular domain …; assay: BLI
# [6] = target: T1, human β-Klotho extracellular domain …; assay: ELISA; solid-phase binding assay
# [7] = target: T1, human β-Klotho extracellular domain …; assay: AlphaScreen, biotinylated FGF
# T1 sequence (Q86Z14 53-992): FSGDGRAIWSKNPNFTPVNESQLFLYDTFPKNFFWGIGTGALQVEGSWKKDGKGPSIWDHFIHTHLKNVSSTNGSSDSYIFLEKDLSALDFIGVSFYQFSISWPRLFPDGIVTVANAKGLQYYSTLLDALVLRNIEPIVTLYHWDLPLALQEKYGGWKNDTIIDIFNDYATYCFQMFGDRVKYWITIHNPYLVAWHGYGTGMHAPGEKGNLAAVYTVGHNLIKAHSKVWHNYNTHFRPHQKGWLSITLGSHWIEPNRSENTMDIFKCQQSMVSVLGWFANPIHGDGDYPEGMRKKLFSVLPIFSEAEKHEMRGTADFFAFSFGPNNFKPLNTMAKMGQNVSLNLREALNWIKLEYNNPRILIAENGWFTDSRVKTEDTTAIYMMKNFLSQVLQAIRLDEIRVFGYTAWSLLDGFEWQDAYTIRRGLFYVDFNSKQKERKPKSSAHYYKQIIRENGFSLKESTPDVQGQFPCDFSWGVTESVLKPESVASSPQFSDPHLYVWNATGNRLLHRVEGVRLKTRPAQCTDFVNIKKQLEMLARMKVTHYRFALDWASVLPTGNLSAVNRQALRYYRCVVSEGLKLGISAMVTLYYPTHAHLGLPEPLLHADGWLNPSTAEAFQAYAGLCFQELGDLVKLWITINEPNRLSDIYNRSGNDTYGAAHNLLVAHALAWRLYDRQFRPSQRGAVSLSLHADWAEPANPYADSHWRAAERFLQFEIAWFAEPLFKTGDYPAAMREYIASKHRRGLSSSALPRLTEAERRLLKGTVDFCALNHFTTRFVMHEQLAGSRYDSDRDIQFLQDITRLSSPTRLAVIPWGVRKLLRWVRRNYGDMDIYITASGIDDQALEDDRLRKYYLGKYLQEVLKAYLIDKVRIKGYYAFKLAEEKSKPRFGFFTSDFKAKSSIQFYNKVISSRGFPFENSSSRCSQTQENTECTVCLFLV
binder,measurement,setting,value
PQPPDVGSSDPLSMVGPSQGRSPSYAS [FGF21 183-209],IC50,[1],0.52 nM
same,IC50,[2],2.1 nM
"SDMFSSPLETDSMDPFGLVTGLEAVRSPSFEK [FGF19 C-terminal peptide, WT FGF19^185–216]",IC50,[3],46.7 nM
same,IC50,[4],346 nM
PQPPDVGSSDPLSMVGPSQGASPSYAS [FGF21 183-209 203R-A],IC50,[1],0.28 nM
PQPPDAGSSDPLSMVGPSQGRSPSYAS [FGF21 183-209 188V-A],IC50,[1],5.2 nM
PQPPDVGSSDALSMVGPSQGRSPSYAS [FGF21 183-209 193P-A],IC50,[1],5.5 nM
"mature human FGF21 polypeptide fused with the human Fc fragment at the N-terminus (Fc-FGF21), wild type (Fc fusion) HPIPDSSPLLQFGGQVRQRYLYTDDAQQTEAHLEIREDGTVGGAADQSPESLLQLKALKPGVIQILGVKTSRFLCQRPDGALYGSLHFDPEACSFRELLLEDGYNVYQSEAHGLPLHLPGNKSPHRDPAPRGPARFLPLPGLPPALPEPPGILAPQPPDVGSSDPLSMVGPSQGRSPSYAS",Kd,[5],1.36 nM
same,EC50,[6],0.6 nM
"mature human FGF21 (ligand, biotin (EZ-Link Sulfo-NHS-LC-Biotin) in the solid-phase binding assay; biotinylated as the labelled ligand in AlphaScreen) HPIPDSSPLLQFGGQVRQRYLYTDDAQQTEAHLEIREDGTVGGAADQSPESLLQLKALKPGVIQILGVKTSRFLCQRPDGALYGSLHFDPEACSFRELLLEDGYNVYQSEAHGLPLHLPGNKSPHRDPAPRGPARFLPLPGLPPALPEPPGILAPQPPDVGSSDPLSMVGPSQGRSPSYAS",EC50,[7],2.81 nM
same,Kd,[5],5.17 nM
same,IC50,[3],5.7 nM
same,IC50,[4],23.1 nM
AQPPDVGSSDPLSMVGPSQGRSPSYAS [FGF21 183-209 183P-A],IC50,[1],1 nM
same,IC50,[2],4.5 nM
PQPPDVGSSDPLSMVAPSQGRSPSYAS [FGF21 183-209 198G-A],IC50,[1],2.6 nM
same,IC50,[2],6 nM
